Source: paper PMC10945758 (Proceedings of the National Academy of Sciences of the …, 2024)
Substitutions are numbered along the chain they refer to.

Legend:
mouse TIFA(1−150/C36S) = biological target: T1, mouse TIFA(1−150/C36S) (mouse, UniProt Q793I8 1-150, C36S); experiment: crystal structure
T1 sequence (looked up): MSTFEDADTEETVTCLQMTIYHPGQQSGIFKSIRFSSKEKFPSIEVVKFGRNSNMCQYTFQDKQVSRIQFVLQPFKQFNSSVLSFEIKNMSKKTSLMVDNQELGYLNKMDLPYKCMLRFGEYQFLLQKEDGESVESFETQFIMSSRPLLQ

mouse TIFA(1−150) = biological target: T2, mouse TIFA(1−150) (mouse, UniProt Q793I8 1-150); experiment: SEC
T2 sequence (looked up): T1 sequence (looked up) with S36C

SEC = biological target: the molecule itself; experiment: SEC

B1: mouse TIFAB(1−139) (domain or fragment, UniProt Q8JZM6 1-139, looked up)
chain: MERPLTVLQVSLYHPTQGPVAFAHVPQQLQHDASRLLVGRGQNTHLQLQLPQLSRYHLSLEPYLEKGSSLLAFCLKVLTRKSCVWVNGLPLRYLEQVPLGTINRISFSGIQMLVRKEGGASLETFVCYFHLSPSPLIYR
Question: Does B1 bind (mouse TIFA(1−150/C36S))?
Answer: binds

B2: mouse TIFAB, full length, coexpressed with TIFA (natural protein, UniProt Q8JZM6 1-147, looked up)
chain: MERPLTVLQVSLYHPTQGPVAFAHVPQQLQHDASRLLVGRGQNTHLQLQLPQLSRYHLSLEPYLEKGSSLLAFCLKVLTRKSCVWVNGLPLRYLEQVPLGTINRISFSGIQMLVRKEGGASLETFVCYFHLSPSPLIYRPKAQETDE
Question: Does B2 bind (mouse TIFA(1−150))?
Answer: binds

B3: mouse TIFA dimer (natural protein, UniProt Q793I8 1-184, looked up)
chain: MSTFEDADTEETVTCLQMTIYHPGQQSGIFKSIRFCSKEKFPSIEVVKFGRNSNMCQYTFQDKQVSRIQFVLQPFKQFNSSVLSFEIKNMSKKTSLMVDNQELGYLNKMDLPYKCMLRFGEYQFLLQKEDGESVESFETQFIMSSRPLLQENNWPTQNPIPEDGMYSSYFTHRSSPSEMDENEL
Question: B3 was tested. Which “stoichiometry N” value (SEC) did it give?
Answer: 2
